The record followed here is publication PMC5571939, “The nature of the Syntaxin4 C-terminus affects Munc18c-supported SNARE assembly” (PLoS ONE, 2017).

To fix the notation:
B4: Munc18c (de-tagged) (natural protein, mouse, UniProt Q60770 1-592, looked up)
chain: MAPPVSERGLKSVVWRKIKTAVFDDCRKEGEWKIMLLDEFTTKLLSSCCKMTDLLEEGITVIENIYKNREPVRQMKALYFISPTPKSVDCFLRDFGSKSEKKYKAAYIYFTDFCPDSLFNKIKASCSKSIRRCKEINISFIPQESQVYTLDVPDAFYYCYSPDPSNASRKEVVMEAMAEQIVTVCATLDENPGVRYKSKPLDNASKLAQLVEKKLEDYYKIDEKGLIKGKTQSQLLIIDRGFDPVSTVLHELTFQAMAYDLLPIENDTYKYKTDGKEKEAVLEEDDDLWVRVRHRHIAVVLEEIPKLMKEISSTKKATEGKTSLSALTQLMKKMPHFRKQISKQVVHLNLAEDCMNKFKLNIEKLCKTEQDLALGTDAEGQRVKDSMLVLLPVLLNKNHDNCDKIRAVLLYIFGINGTTEENLDRLIHNVKIEDDSDMIRNWSHLGVPIVPPSQQAKPLRKDRSAEETFQLSRWTPFIKDIMEDAIDNRLDSKEWPYCSRCPAVWNGSGAVSARQKPRTNYLELDRKNGSRLIIFVIGGITYSEMRCAYEVSQAHKSCEVIIGSTHILTPRKLLDDIKMLNKSKDKVSFKDE
notes: Munc18c (Munc18-3), mouse; also called detagged Munc18c; HTMunc18c after TEV cleavage; source: E. coli, purified (IMAC, TEV cleavage, reverse IMAC, SEC); not shown: His6, N-terminal, cleaved
B5: HMunc18c (natural protein, mouse, UniProt Q60770 1-592, looked up)
chain: MAPPVSERGLKSVVWRKIKTAVFDDCRKEGEWKIMLLDEFTTKLLSSCCKMTDLLEEGITVIENIYKNREPVRQMKALYFISPTPKSVDCFLRDFGSKSEKKYKAAYIYFTDFCPDSLFNKIKASCSKSIRRCKEINISFIPQESQVYTLDVPDAFYYCYSPDPSNASRKEVVMEAMAEQIVTVCATLDENPGVRYKSKPLDNASKLAQLVEKKLEDYYKIDEKGLIKGKTQSQLLIIDRGFDPVSTVLHELTFQAMAYDLLPIENDTYKYKTDGKEKEAVLEEDDDLWVRVRHRHIAVVLEEIPKLMKEISSTKKATEGKTSLSALTQLMKKMPHFRKQISKQVVHLNLAEDCMNKFKLNIEKLCKTEQDLALGTDAEGQRVKDSMLVLLPVLLNKNHDNCDKIRAVLLYIFGINGTTEENLDRLIHNVKIEDDSDMIRNWSHLGVPIVPPSQQAKPLRKDRSAEETFQLSRWTPFIKDIMEDAIDNRLDSKEWPYCSRCPAVWNGSGAVSARQKPRTNYLELDRKNGSRLIIFVIGGITYSEMRCAYEVSQAHKSCEVIIGSTHILTPRKLLDDIKMLNKSKDKVSFKDE
notes: Munc18c (Munc18-3), mouse; also called Munc18c with an N-terminal His6-tag; source: E. coli, purified as described previously [39]; not shown: His6, N-terminal, kept

Holding throughout (conditions): both partners purified
The assay “HMunc18c” concerns the target B5. Nature of the assay: fluorescence polarisation; fluorescence anisotropy kinetics, both in solution: Alexa488-labeled Sx4 (50 nM) with HMunc18c at 100–2500 nM; 25°C; 25 mM HEPES pH 8.0, 200 mM NaCl, 1 mM TCEP, 2% glycerol; global 1:1 fit (Dynafit 4.0).
The assay “Munc18c (de-tagged)” concerns the target B4. Put plainly: BLI; C-terminally His-tagged Sx4 constructs loaded on Ni-NTA biosensors; de-tagged Munc18c 10/25–400 nM in solution; 25 mM Tris-Cl pH 7.5, 150 mM NaCl, 10 mM imidazole, 0.1% TX-100, 10% glycerol, 2 mM βME; BLItz; 1:1 fit.
The target of a further assay is T1, HL-Munc18c (mouse, UniProt Q60770 1-592).
T1 construct: Munc18c (Munc18-3), mouse; The linker is said to have 53 amino acids; also called Munc18c with N-terminal His6-tag and long linker; source: E. coli, purified as described previously [39]; not shown: His6 with long linker ([residues removed]), N-terminal, kept
T1 sequence (looked up): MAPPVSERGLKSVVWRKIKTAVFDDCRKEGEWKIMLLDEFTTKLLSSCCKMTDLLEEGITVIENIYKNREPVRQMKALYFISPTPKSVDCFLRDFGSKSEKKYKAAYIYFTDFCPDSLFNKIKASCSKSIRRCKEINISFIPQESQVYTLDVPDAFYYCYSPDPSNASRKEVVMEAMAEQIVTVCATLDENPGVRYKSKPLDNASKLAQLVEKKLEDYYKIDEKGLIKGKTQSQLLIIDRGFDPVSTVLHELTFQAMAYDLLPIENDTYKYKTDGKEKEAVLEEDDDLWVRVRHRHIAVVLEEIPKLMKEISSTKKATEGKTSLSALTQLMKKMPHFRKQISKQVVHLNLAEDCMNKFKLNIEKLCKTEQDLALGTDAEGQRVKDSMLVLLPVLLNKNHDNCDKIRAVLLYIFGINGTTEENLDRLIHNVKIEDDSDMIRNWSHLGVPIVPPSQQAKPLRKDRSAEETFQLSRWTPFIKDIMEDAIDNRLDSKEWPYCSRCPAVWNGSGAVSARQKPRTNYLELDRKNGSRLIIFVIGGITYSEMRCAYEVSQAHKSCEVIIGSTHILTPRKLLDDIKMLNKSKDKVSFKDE
Nature of the assay: pull-down; HL-Munc18c (20 μg, 1.4 μM) immobilised on TALON Co2+ beads; de-tagged Sx4 proteins (50 μg) added for 4 h (legend: 6 h), washed; binding buffer with 0.1% Triton X-100; SDS-PAGE, Coomassie.

Assay [1] addresses T2, Sx4_(1-275)-T4L-His (rat | phage T4 (from the name T4 …, UniProt Q08850 1-275; P00720 1-164, C141S).
T2 construct: T4 lysozyme (T4L), amino acids 1-164, synthetic gene (GeneArt); Sx4 ligated between NdeI and HindIII, T4L between HindIII and XhoI of pET20b; also called Sx4 cytoplasmic domain with C-terminal T4-lysozyme fusion and His6; source: E. coli, purified; not shown: His6, C-terminal, kept
Put plainly: BLI; C-terminally His-tagged Sx4 constructs loaded on Ni-NTA biosensors; de-tagged Munc18c 10/25–400 nM in solution; 25 mM Tris-Cl pH 7.5, 150 mM NaCl, 10 mM imidazole, 0.1% TX-100, 10% glycerol, 2 mM βME; BLItz; 1:1 fit.

Assay [2] addresses T2, Sx4_(1-275)-T4L-His. Nature of the assay: ITC; Sx4-T4L-His construct (200–250 μM) titrated into HMunc18c (20–40 μM) in the cell; 298 K; 25 mM HEPES pH 8.0, 200 mM NaCl, 10% glycerol, 2 mM β-ME; single site model.
In assay [3] the target is T3, Alexa488-labeled Sx4_(1-275)-T4L-His (native C141) (rat | phage T4 (from the name T4 …, UniProt Q08850 1-275)); P00720 1-164, Alexa Fluor 488 C5 maleimide on cysteine (native C141 rather than C141S)).
T3 construct: T4 lysozyme (T4L), amino acids 1-164, synthetic gene (GeneArt); Degree of labeling greater than 90%; not shown: His6, C-terminal, kept
Nature of the assay: fluorescence polarisation; fluorescence anisotropy kinetics, both in solution: Alexa488-labeled Sx4 (50 nM) with HMunc18c at 100–2500 nM; 25°C; 25 mM HEPES pH 8.0, 200 mM NaCl, 1 mM TCEP, 2% glycerol; global 1:1 fit (Dynafit 4.0).

B1: Alexa488-labeled Sx4_(1-275)-His (native C141) (domain or fragment, rat, UniProt Q08850 1-275, looked up)
chain: MRDRTHELRQGDNISDDEDEVRVALVVHSGAARLSSPDDEFFQKVQTIRQTMAKLESKVRELEKQQVTILATPLPEESMKQGLQNLREEIKQLGREVRAQLKAIEPQKEEADENYNSVNTRMKKTQHGVLSQQFVELINKCNSMQSEYREKNVERIRRQLKITNAGMVSDEELEQMLDSGQSEVFVSNILKDTQVTRQALNEISARHSEIQQLERSIRELHEIFTFLATEVEMQGEMINRIEKNILSSADYVERGQEHVKIALENQKKARKKKVM
modifications: Alexa Fluor 488 C5 maleimide on cysteine (native C141 rather than C141S)
notes: Degree of labeling greater than 90%; not shown: His6, C-terminal, kept
As for B1, in the assay with HMunc18c, the Kd was found to be 502 nM, the dissociation rate constant (koff) came out at 0.000653 s⁻¹ and the kon was 1300 M⁻¹ s⁻¹.

B2: Sx4_(1-275)-His (domain or fragment, rat, UniProt Q08850 1-275, looked up)
chain: MRDRTHELRQGDNISDDEDEVRVALVVHSGAARLSSPDDEFFQKVQTIRQTMAKLESKVRELEKQQVTILATPLPEESMKQGLQNLREEIKQLGREVRAQLKAIEPQKEEADENYNSVNTRMKKTQHGVLSQQFVELINKSNSMQSEYREKNVERIRRQLKITNAGMVSDEELEQMLDSGQSEVFVSNILKDTQVTRQALNEISARHSEIQQLERSIRELHEIFTFLATEVEMQGEMINRIEKNILSSADYVERGQEHVKIALENQKKARKKKVM
notes: also called Syntaxin4 soluble cytoplasmic domain with C-terminal His6; source: E. coli, purified as described previously [17, 28]; not shown: His6, C-terminal, kept
In the assay with Munc18c (de-tagged), B2 returned a Kd of 21 nM, a koff of 0.0086 s⁻¹ and a kon of 530000 M⁻¹ s⁻¹.

B3: Sx4_(1-298)-TMD (de-tagged, in detergent micelles) (natural protein, mouse, UniProt P70452 1-298, looked up)
chain: MRDRTHELRQGDNISDDEDEVRVALVVHSGAARLGSPDDEFFQKVQTIRQTMAKLESKVRELEKQQVTILATPLPEESMKQGLQNLREEIKQLGREVRAQLKAIEPQKEEADENYNSVNTRMKKTQHGVLSQQFVELINKCNSMQSEYREKNVERIRRQLKITNAGMVSDEELEQMLDSGQSEVFVSNILKDTQVTRQALNEISARHSEIQQLERSIRELHEIFTFLATEVEMQGEMINRIEKNILSSADYVERGQEHVKIALENQKKARKKKVMIAICVSVTVLILAVIIGITITVG
notes: Syntaxin4 (Sx4) with its C-terminal transmembrane domain, mouse, amino acids 1-298, synthetic gene (GenScript); Mouse, whereas the soluble Sx4 constructs are rat; also called full-length Sx4; HT-Sx4-TMD after TEV cleavage; source: E. coli Lemo21 (DE3), purified in DDM (TALON Co2+ IMAC, TEV cleavage, reverse IMAC); not shown: His6, N-terminal, cleaved
B3: the binding result in the assay with HL-Munc18c is listed as “binds”.
In the assay with Sx4_(1-275)-T4L-His [1], B4 registered a Kd of 20 nM, a koff of 0.0078 s⁻¹ and a kon of 430000 M⁻¹ s⁻¹.
As to B5, binding with Sx4_(1-275)-T4L-His [2] was characterised by a dissociation constant (Kd) of 100 nM. Moreover, in assay [3], the affinity, expressed as Kd, was 148 nM; the koff was determined as 7.5e-05 s⁻¹; the kon worked out at 502 M⁻¹ s⁻¹.
